In article PMC4139157:

Biological target: human plasma fibrinogen (human) (UniProt P02671)
Experiment: ELISA

Chain of UniProt P02671 (P02671 36-866, chain 1 of 3): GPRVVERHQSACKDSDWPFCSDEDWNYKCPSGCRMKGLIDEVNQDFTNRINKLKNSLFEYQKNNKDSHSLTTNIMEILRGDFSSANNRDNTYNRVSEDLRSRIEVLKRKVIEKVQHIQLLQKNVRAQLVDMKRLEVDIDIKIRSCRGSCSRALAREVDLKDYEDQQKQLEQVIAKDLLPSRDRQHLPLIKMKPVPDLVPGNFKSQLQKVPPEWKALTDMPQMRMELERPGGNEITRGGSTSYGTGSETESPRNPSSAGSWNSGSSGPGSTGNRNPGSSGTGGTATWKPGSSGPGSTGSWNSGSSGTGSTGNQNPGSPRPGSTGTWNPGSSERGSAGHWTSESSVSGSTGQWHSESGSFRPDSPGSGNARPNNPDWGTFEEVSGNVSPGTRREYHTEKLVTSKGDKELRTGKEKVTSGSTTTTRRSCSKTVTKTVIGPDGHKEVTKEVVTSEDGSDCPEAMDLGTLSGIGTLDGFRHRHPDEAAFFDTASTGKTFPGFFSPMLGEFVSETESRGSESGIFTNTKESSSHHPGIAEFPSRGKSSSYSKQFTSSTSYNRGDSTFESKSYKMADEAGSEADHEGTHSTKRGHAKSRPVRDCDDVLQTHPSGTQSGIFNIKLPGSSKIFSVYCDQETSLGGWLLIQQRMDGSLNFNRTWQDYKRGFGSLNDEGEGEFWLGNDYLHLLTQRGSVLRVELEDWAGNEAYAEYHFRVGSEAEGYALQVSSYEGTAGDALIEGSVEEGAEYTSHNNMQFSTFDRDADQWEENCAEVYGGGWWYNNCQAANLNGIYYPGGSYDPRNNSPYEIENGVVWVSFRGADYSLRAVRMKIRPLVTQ
Chain of UniProt P02671 (P02675 45-491, chain 2 of 3, further chain): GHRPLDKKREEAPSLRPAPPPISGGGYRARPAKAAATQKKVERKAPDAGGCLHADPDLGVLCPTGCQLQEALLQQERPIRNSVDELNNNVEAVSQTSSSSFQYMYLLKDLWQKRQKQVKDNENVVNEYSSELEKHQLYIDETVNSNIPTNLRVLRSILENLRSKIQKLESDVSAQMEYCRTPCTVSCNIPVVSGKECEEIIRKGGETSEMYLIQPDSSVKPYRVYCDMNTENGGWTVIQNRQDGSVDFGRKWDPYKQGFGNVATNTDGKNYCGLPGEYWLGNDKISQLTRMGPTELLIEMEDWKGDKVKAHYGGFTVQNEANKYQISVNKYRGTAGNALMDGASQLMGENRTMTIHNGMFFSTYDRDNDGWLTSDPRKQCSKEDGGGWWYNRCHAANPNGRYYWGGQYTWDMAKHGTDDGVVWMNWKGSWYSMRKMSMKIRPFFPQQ
Chain of UniProt P02671 (P02679 27-453, chain 3 of 3, further chain): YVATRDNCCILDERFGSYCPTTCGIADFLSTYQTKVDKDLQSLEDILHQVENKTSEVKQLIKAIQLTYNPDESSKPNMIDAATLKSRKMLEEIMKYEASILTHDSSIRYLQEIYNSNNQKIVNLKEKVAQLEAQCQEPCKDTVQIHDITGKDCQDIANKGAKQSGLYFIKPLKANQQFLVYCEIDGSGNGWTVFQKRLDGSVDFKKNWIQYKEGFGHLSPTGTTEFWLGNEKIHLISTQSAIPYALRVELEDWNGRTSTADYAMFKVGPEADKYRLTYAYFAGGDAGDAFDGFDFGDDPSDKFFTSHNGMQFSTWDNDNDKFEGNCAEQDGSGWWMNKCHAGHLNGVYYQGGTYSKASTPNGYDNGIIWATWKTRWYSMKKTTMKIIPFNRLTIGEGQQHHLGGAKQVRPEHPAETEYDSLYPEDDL

| Substance | Kd [µM] |
| --- | --- |
| Histidine-tagged LigB-12 (amino acids 1029–1123 of LigB) (domain or fragment) | 125 |
| Histidine-tagged LigBCen2R (amino acids 1014–1123 of LigB) (domain or fragment) | 117 |
